Read-outs that look alike come from different tables or passages of the source.
Columns and labels:
human CD20 [1] = target: T1, human CD20 (human, UniProt P11836 1-297); assay: cell-based or functional assay
T1 sequence: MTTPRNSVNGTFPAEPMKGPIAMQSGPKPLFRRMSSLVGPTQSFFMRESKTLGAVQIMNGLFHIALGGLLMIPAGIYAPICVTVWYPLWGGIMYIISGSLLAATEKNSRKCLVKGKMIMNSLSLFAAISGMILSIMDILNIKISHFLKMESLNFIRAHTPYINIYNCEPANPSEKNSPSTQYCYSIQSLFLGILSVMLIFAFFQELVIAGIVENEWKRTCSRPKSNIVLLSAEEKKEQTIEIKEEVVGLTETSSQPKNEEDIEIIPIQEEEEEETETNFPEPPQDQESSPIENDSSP

human CD20 [2] = target: T1, human CD20; assay: cell-based or functional assay; remark: listed apart in the source
human CD20 [3] = target: T1, human CD20; assay: cell-based or functional assay; remark: listed apart in the source
human CD20 [4] = target: T1, human CD20; assay: cell-based or functional assay; remark: listed apart in the source
human CD20 [5] = target: T1, human CD20; assay: flow cytometry, hCD20-transfected MG87 cells
Experimental: Briefly, parental MG87 and human CD20-transfected MG87 cells were incubated for 30 min at 4° C. with each of the 15 human antibodies and the two control antibodies, followed by incubation with PE-conjugated anti-human IgG antibody. Binding was assessed by flow cytometry. Fluorescence intensities were compared with binding to the parental cell line and control isotype-matched sample.

[6] = target: T2, mutant human CD20 #1 (Y77F) (human, UniProt P11836 1-297); assay: FACS, mutant-hCD20 MG87 cells; 100%=best antibody
T2 construct: Human residues replaced by mouse residues; stably expressed on MG87 cells
T2 sequence: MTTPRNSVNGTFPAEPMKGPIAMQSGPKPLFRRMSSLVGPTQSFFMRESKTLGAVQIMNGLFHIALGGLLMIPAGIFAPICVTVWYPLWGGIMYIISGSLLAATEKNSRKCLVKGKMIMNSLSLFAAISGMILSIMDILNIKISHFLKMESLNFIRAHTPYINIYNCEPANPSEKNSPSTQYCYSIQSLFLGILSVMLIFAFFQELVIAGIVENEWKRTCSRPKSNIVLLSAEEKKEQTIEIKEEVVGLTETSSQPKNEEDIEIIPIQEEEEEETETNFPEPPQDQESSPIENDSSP
Experimental: (§1) Briefly, approximately 1×10⁶ cells from each stably transfected cell line expressing a mutant human CD20 were collected and incubated with each anti-human antibody, at 10 μg/ml, on ice for 1 hr, followed by incubation with APC-conjugated goat anti-human IgG (Jackson Immunolabs), at 10 μg/ml, on ice for 45 min. For each antibody, binding to each mutant human CD20 was assessed by flow cytometry.

[7] = target: T3, mutant human CD20 #2 (N163D) (human, UniProt P11836 1-297); assay: FACS, mutant-hCD20 MG87 cells; 100%=best antibody
T3 construct: Stably expressed on MG87 cells
T3 sequence: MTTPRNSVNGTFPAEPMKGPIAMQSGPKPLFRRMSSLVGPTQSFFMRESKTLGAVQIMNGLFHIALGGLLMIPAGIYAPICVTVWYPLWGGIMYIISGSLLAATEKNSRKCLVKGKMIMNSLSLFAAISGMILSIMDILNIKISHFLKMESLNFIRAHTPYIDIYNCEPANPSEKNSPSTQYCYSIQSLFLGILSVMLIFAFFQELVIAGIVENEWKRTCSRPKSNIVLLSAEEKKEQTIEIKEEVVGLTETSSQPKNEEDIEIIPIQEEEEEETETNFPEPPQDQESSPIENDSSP
Experimental: as §1

[8] = target: T4, mutant human CD20 #3 (A170S, P172S) (human, UniProt P11836 1-297); assay: FACS, mutant-hCD20 MG87 cells; 100%=best antibody
T4 construct: Stably expressed on MG87 cells
T4 chain: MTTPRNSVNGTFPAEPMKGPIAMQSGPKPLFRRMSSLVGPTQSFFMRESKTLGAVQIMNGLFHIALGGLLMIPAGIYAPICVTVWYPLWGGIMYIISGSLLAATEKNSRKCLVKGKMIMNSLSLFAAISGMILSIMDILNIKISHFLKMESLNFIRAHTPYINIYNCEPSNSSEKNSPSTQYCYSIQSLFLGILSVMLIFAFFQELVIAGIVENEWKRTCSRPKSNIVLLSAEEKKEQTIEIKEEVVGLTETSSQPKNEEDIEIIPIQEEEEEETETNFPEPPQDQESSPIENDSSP
Experimental: as §1

[9] = target: T5, mutant human CD20 #4 (N166D) (human, UniProt P11836 1-297); assay: FACS, mutant-hCD20 MG87 cells; 100%=best antibody
T5 construct: Stably expressed on MG87 cells
T5 sequence: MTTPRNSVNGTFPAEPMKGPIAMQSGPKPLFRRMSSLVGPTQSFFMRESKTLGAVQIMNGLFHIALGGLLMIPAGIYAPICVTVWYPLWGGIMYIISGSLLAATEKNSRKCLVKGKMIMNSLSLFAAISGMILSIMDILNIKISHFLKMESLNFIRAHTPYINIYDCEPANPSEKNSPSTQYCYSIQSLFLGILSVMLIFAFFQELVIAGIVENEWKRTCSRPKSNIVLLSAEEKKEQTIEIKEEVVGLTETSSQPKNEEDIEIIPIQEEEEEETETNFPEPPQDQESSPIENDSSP
Experimental: as §1

[10] = target: T6, mutant human CD20 #6 (Y77F, N166D) (human, UniProt P11836 1-297); assay: FACS, mutant-hCD20 MG87 cells; 100%=best antibody
T6 construct: Stably expressed on MG87 cells
T6 chain: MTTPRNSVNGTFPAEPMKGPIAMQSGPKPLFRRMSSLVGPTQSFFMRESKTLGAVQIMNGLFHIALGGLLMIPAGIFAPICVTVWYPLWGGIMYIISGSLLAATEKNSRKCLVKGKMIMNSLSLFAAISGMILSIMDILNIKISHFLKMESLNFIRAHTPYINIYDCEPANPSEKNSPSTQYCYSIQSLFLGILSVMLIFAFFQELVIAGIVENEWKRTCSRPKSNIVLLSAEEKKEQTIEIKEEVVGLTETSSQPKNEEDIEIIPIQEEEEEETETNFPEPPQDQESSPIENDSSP
Experimental: as §1

[11] = target: T7, mutant human CD20 #7 (Y77F, N163D) (human, UniProt P11836 1-297); assay: FACS, mutant-hCD20 MG87 cells; 100%=best antibody
T7 construct: Stably expressed on MG87 cells
T7 chain: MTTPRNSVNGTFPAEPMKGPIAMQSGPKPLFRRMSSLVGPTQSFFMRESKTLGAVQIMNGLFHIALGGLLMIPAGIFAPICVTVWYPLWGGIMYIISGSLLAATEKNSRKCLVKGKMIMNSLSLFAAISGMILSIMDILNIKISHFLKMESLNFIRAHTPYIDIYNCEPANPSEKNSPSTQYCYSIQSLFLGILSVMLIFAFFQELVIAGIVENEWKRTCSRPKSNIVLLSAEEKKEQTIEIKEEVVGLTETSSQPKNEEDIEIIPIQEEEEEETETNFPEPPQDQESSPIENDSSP
Experimental: as §1

[12] = target: T8, mutant human CD20 #8 (Y77F, N163D, N166D) (human, UniProt P11836 1-297); assay: FACS, mutant-hCD20 MG87 cells; 100%=best antibody
T8 construct: Stably expressed on MG87 cells
T8 chain: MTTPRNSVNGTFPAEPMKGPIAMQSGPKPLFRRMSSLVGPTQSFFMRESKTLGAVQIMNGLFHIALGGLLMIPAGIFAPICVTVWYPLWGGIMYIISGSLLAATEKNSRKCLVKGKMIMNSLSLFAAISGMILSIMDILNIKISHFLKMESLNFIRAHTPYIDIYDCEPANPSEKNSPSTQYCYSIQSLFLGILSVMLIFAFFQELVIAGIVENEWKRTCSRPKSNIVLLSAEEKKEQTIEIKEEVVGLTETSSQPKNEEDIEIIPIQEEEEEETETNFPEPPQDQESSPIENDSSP
Experimental: as §1

[13] = target: T9, mutant human CD20 #9 (N163D, N166D) (human, UniProt P11836 1-297); assay: FACS, mutant-hCD20 MG87 cells; 100%=best antibody
T9 construct: Stably expressed on MG87 cells
T9 chain: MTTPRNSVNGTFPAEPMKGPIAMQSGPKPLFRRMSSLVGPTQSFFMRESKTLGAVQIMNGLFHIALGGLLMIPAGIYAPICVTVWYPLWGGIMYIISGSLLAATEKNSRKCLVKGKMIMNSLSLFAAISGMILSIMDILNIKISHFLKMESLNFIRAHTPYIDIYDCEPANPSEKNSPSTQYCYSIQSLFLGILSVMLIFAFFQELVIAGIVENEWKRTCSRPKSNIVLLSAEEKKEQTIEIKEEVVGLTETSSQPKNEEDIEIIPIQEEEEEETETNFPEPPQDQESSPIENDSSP
Experimental: as §1

[14] = target: T10, mutant human CD20 #10 (A157V) (human, UniProt P11836 1-297); assay: FACS, mutant-hCD20 MG87 cells; 100%=best antibody
T10 construct: Stably expressed on MG87 cells
T10 sequence: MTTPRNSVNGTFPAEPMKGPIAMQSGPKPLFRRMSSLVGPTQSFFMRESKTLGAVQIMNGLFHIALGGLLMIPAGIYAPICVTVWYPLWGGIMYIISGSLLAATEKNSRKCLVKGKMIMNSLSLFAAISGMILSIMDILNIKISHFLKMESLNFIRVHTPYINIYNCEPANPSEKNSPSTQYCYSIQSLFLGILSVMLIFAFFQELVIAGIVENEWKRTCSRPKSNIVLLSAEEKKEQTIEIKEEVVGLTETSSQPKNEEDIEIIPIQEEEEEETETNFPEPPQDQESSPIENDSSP
Experimental: as §1

B1: rituximab (RITUXAN, IDEC Pharmaceuticals Corp.) (antibody, V domains shown)
VH: QVQLQQPGAELVKPGASVKMSCKASGYTFTSYNMHWVKQTPGRGLEWIGAIYPGNGDTSYNQKFKGKATLTADKSSSTAYMQLSSLTSEDSAVYYCARSTYYGGDWYFNVWGAGTTVTVSA
VL: QIVLSQSPAILSASPGEKVTMTCRASSSVSYIHWFQQKPGSSPKPWIYATSNLASGVPVRFSGSGSGTSYSLTISRVEAEDAATYYCQQWTSNPPTFGGGTKLEIK
- CDC, Daudi EC50 (human CD20 [1]): 0.84 nM
- CDC, RL EC50 (human CD20 [1]): > 50 nM
- % Cytotoxicity (CDC, Daudi), 0 hour (human CD20 [2]): 98.5%
- % Cytotoxicity (CDC, Daudi), 1 hour (human CD20 [2]): 86.9%
- % Cytotoxicity (CDC, Daudi), 6 hour (human CD20 [2]): 16%
- % Cytotoxicity (CDC, Daudi), 0 hour (human CD20 [3]): 91.9%
- % Cytotoxicity (CDC, Daudi), 1 hour (human CD20 [3]): 65.3%
- % Cytotoxicity (CDC, Daudi), 6 hour (human CD20 [3]): 52.1%
- % Cytotoxicity (CDC, Daudi), 0 hour (human CD20 [4]): 98.3%
- % Cytotoxicity (CDC, Daudi), 1 hour (human CD20 [4]): 81.1%
- % Cytotoxicity (CDC, Daudi), 6 hour (human CD20 [4]): 20.5%
- Total Mean Fluorescent Intensity (human CD20 [5]): 2960

B2: 2F2 (antibody, V domains shown)
VH: EVQLVESGGGLVQPGRSLRLSCAASGFTFNDYAMHWVRQAPGKGLEWVSTISWNSGSIGYADSVKGRFTISRDNAKKSLYLQMNSLRAEDTALYYCAKDIQYGNYYYGMDVWGQGTTVTVSS
VL: EIVLTQSPATLSLSPGERATLSCRASQSVSSYLAWYQQKPGQAPRLLIYDASNRATGIPARFSGSGSGTDFTLTISSLEPEDFAVYYCQQRSNWPITFGQGTRLEIK
- Percent of Binding to Mutant Human CD20 [6]: 60%
- Percent of Binding to Mutant Human CD20 [7]: 30%
- Percent of Binding to Mutant Human CD20 [8]: 70%
- Percent of Binding to Mutant Human CD20 [9]: 51%
- Percent of Binding to Mutant Human CD20 [10]: 1%
- Percent of Binding to Mutant Human CD20 [11]: 1%
- Percent of Binding to Mutant Human CD20 [12]: 0%
- Percent of Binding to Mutant Human CD20 [13]: 4%
- Percent of Binding to Mutant Human CD20 [14]: 79%
